The record followed here is patent US20190211071A1 (NATIONAL UNIVERSITY OF SINGAPORE, published 2019).

The target of assay [1] is T1, rat NPR-A (rat, UniProt P18910 29-1057).
T1 sequence (looked up): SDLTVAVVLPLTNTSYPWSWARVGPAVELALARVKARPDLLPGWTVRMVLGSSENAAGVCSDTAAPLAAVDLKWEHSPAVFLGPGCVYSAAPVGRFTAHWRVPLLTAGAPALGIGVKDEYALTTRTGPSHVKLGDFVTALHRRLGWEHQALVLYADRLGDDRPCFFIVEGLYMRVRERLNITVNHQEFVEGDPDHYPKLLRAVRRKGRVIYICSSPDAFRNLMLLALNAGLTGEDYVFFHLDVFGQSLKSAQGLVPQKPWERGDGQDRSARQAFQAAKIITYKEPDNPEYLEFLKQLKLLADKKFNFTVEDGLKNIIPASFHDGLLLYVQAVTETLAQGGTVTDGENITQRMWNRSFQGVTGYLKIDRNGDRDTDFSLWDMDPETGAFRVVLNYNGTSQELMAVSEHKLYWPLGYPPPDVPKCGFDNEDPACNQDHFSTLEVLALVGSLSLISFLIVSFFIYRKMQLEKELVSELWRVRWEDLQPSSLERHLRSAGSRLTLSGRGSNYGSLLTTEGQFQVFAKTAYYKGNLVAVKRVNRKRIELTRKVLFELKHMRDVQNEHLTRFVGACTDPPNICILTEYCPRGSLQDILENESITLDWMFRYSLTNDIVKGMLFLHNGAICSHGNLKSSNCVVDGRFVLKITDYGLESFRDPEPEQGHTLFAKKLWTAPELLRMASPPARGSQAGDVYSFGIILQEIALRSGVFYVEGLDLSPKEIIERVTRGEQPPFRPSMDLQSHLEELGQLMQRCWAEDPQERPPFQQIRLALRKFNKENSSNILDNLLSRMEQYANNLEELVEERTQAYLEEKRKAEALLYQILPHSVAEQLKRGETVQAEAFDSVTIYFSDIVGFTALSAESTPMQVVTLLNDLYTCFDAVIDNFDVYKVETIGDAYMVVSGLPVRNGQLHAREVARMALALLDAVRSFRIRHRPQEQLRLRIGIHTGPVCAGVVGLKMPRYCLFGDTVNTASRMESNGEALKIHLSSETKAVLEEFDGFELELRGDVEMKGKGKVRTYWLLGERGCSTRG
Put plainly: cell-based or functional assay.

Assay [2] has as its target T1, rat NPR-A. In words: cell-based or functional assay. This is another data set of the same source.

Positions of bridges follow the written chain, without caps; N, C: chain ends. No end group written: not given here.

As for GLLISCFDRRIDRISHTSDIGCRH (disulfide 6-22) [K-Ring], in the assay with rat NPR-A [1], the “time to produce similar levels of cGMP (time-chase at EC50 concentration)” value stood at 30 min. Further, in the assay with rat NPR-A [2], the “NPR-A activation potency IC50” value came to 244 nM, the “NPR-A activation potency: Ratio compared ANP” value was determined as 14.1 ratio, the “NPR-A activation potency: Ratio compared wild type NPs” value stood at 1 ratio and the “Rate of generation of cGMP (pmol cGMP/pmol peptide)” value (“Rate … (pmol cGMP/pmol peptide)” below) was determined as 0.0228 pmol cGMP/pmol peptide. For the same molecule, in the assay with rat NPR-A [2], the “Rate of generation of cGMP: Ratio compared ANP” value (from here on “Rate … Ratio compared ANP”) is 350 ratio and the “Rate of generation of cGMP: Ratio compared wild type NPs” value (from here on “Rate … Ratio compared wild type NPs”) is 1 ratio.

Take SLRRSSCFDGRMDRIGAQSDLGCNSFRY (disulfide 7-23 (inferred)) [^DGDANP]: in the assay with rat NPR-A [2], the “NPR-A activation potency IC50” value is 135 nM, the “NPR-A activation potency: Ratio compared ANP” value turned out to be 7.8 ratio, the “NPR-A activation potency: Ratio compared wild type NPs” value amounted to 7.8 ratio and the “Rate … (pmol cGMP/pmol peptide)” value is 0.14 pmol cGMP/pmol peptide. Besides, in the assay with rat NPR-A [2], the “Rate … Ratio compared ANP” value was 56.9 ratio and the “Rate … Ratio compared wild type NPs” value was 56.9 ratio.

GLLISCFGRRIDRISHTSDIGCRH (disulfide 6-22) [^GRDK-Ring]: in the assay with rat NPR-A [2], the “NPR-A activation potency IC50” value is 50.7 nM, the “NPR-A activation potency: Ratio compared ANP” value amounted to 2.9 ratio, the “NPR-A activation potency: Ratio compared wild type NPs” value is -4.8 ratio and the “Rate … (pmol cGMP/pmol peptide)” value came to 0.113 pmol cGMP/pmol peptide. Also, in the assay with rat NPR-A [2], the “Rate … Ratio compared ANP” value amounted to 70.5 ratio and the “Rate … Ratio compared wild type NPs” value is 5 ratio.

GLLISCFDRRIDRISHTSDIGCNSFRY (disulfide 6-22) [K-Ring^NSFRY]: in the assay with rat NPR-A [2], the “NPR-A activation potency IC50” value was 43.8 nM, the “NPR-A activation potency: Ratio compared ANP” value was found to be 2.5 ratio, the “NPR-A activation potency: Ratio compared wild type NPs” value was -5.6 ratio and the “Rate … (pmol cGMP/pmol peptide)” value amounted to 0.31 pmol cGMP/pmol peptide. In addition, in the assay with rat NPR-A [2], the “Rate … Ratio compared ANP” value was found to be 25.7 ratio and the “Rate … Ratio compared wild type NPs” value turned out to be 13.6 ratio.

Regarding GLLISCFGRRIDRISHTSGIGCRH (disulfide 6-22) [^GRGK-Ring], in the assay with rat NPR-A [1], the “activation kinetics compared to K-Ring” value is 3 fold and the “potency of cGMP response compared to K-Ring” value was 4 fold. Moreover, in the assay with rat NPR-A [2], the “NPR-A activation potency IC50” value worked out at 87.7 nM, the “NPR-A activation potency: Ratio compared ANP” value came to 5.1 ratio, the “NPR-A activation potency: Ratio compared wild type NPs” value is -2.8 ratio and the “Rate … (pmol cGMP/pmol peptide)” value came to 0.19 pmol cGMP/pmol peptide. For the same molecule, in the assay with rat NPR-A [2], the “Rate … Ratio compared ANP” value stood at 41.9 ratio and the “Rate … Ratio compared wild type NPs” value worked out at 8.3 ratio.

Turning to GLLISCFDRRIDRISHTSGIGCRH (disulfide 6-22) [^DRGK-Ring], in the assay with rat NPR-A [2], the “NPR-A activation potency IC50” value amounted to 694 nM, the “NPR-A activation potency: Ratio compared ANP” value was 40.1 ratio, the “NPR-A activation potency: Ratio compared wild type NPs” value came to 2.8 ratio and the “Rate … (pmol cGMP/pmol peptide)” value turned out to be 0.007 pmol cGMP/pmol peptide. Further, in the assay with rat NPR-A [2], the “Rate … Ratio compared ANP” value worked out at 1140 ratio and the “Rate … Ratio compared wild type NPs” value was 3.2 ratio.

On to GLLISCFDGRIDRISHTSDIGCRH (disulfide 6-22) [^DGDK-Ring], for which, in the assay with rat NPR-A [2], the “NPR-A activation potency IC50” value amounted to 866 nM, the “NPR-A activation potency: Ratio compared ANP” value was found to be 50.1 ratio, the “NPR-A activation potency: Ratio compared wild type NPs” value turned out to be 3.6 ratio and the “Rate … (pmol cGMP/pmol peptide)” value was determined as 0.005 pmol cGMP/pmol peptide. In the assay with rat NPR-A [2], the “Rate … Ratio compared ANP” value came to 1590 ratio and the “Rate … Ratio compared wild type NPs” value is 4.6 ratio.

Turning to SLRRSSCFDRRMDRIGAQSDLGCNSFRY (disulfide 7-23 (inferred)) [^DRDANP], in the assay with rat NPR-A [2], the “NPR-A activation potency IC50” value came to 45.2 nM, the “NPR-A activation potency: Ratio compared ANP” value was 2.6 ratio, the “NPR-A activation potency: Ratio compared wild type NPs” value is 2.6 ratio and the “Rate … (pmol cGMP/pmol peptide)” value turned out to be 0.38 pmol cGMP/pmol peptide. Further, in the assay with rat NPR-A [2], the “Rate … Ratio compared ANP” value was determined as 21 ratio and the “Rate … Ratio compared wild type NPs” value came to 21 ratio.
